Test results: ChEMBL document CHEMBL1127417, “Multisubstrate inhibition of 4-hydroxybenzoate 3-monooxygenase” (J Med Chem, 1994)

Assays:
[1] = substrate: O=C(O)c1ccc(O)cc1OCc1ccccc1; assay: Michaelis-Menten constant against p-hydroxybenzoate hydroxylase (PHBH) from Pseudomonas fluorescence compared with p-hydroxy benzoic acid; conditions: Pseudomonas fluorescens
[2] = substrate: O=C(O)c1ccc(O)cc1OCc1ccccc1; assay: Michaelis-Menten constant against p-hydroxybenzoate hydroxylase (PHBH) from Pseudomonas fluorescence compared with NADPH; conditions: Pseudomonas fluorescens

B1: p-hydroxybenzoate hydroxylase (Pseudomonas fluorescens), P00438 (protein)
chain: MKTQVAIIGAGPSGLLLGQLLHKAGIDNVILERQTPDYVLGRIRAGVLEQGMVDLLREAGVDRRMARDGLVHEGVEIAFAGQRRRIDLKRLSGGKTVTVYGQTEVTRDLMEAREACGATTVYQAAEVRLHDLQGERPYVTFERDGERLRLDCDYIAGCDGFHGISRQSIPAERLKVFERVYPFGWLGLLADTPPVSHELIYANHPRGFALCSQRSATRSRYYVQVPLTEKVEDWSDERFWTELKARLPAEVAEKLVTGPSLEKSIAPLRSFVVEPMQHGRLFLAGDAAHIVPPTGAKGLNLAASDVSTLYRLLLKAYREGRGELLERYSAICLRRIWKAERFSWWMTSVLHRFPDTDAFSQRIQQTELEYYLGSEAGLATIAENYVGLPYEEIE
[1]
  Km: 21 µM
[2]
  Km: 57 µM
